Data on two molecules can be found in patent US8889621B2, “Inhibiting binding of FGF23 to the binary FGFR-Klotho complex for the treatment of hypophosphatemia” (New York University, priority 2009, dated 2014).

This test addresses T1, binary FGFR1c-Klotho complex (UniProt O35082+P11362).
T1 construct: The ectodomain of murine Klotho (A35 to K982) was purified from culture media; FLAG (C); made in house; host or cells: E. coli (FGFR1c, FGF23); HEK293 (Klotho ectodomain)
T1 sequence (P11362 142-365): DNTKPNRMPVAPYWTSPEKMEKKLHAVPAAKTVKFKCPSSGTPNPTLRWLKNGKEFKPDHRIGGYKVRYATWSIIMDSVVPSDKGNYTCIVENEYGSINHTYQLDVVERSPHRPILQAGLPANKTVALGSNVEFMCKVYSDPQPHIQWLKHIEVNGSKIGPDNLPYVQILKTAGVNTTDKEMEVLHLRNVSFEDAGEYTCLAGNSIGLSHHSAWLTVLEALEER
T1 sequence (O35082 35-982): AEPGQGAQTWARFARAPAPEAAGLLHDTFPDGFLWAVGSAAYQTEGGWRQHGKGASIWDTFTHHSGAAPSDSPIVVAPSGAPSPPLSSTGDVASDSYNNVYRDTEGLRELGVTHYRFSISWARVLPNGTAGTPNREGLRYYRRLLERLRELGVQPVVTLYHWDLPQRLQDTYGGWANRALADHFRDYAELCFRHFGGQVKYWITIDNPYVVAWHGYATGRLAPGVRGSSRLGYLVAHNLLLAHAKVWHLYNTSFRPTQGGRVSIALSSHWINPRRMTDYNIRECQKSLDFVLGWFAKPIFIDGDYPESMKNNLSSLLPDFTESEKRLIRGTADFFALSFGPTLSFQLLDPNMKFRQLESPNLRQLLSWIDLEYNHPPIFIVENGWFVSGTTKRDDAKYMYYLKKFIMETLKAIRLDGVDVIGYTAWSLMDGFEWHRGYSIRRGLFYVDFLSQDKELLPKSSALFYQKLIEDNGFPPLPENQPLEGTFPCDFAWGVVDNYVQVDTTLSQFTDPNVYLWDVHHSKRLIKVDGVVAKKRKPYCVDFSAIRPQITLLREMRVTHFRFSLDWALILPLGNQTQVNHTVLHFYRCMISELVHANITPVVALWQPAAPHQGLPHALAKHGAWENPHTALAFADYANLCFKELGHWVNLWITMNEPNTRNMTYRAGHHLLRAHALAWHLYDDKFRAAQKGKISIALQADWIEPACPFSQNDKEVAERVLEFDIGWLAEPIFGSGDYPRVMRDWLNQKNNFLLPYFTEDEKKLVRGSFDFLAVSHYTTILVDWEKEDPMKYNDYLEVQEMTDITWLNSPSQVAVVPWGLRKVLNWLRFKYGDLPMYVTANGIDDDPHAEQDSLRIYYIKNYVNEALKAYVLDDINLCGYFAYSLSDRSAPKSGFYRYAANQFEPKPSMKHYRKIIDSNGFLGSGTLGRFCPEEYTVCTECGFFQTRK
The test can be described thus: SPR: binary FGFR1c-Klotho complex passed over immobilized FGF23 protein/peptide. The test is classed as binding, human FGFR1c, murine Klotho. The procedure: A variety of interaction or binding assays can be used to determine that an agent specifically binds the binary FGFR-Klotho complex, such as the SPR interaction analysis described below. One aspect of the present invention utilizes SPR analysis of FGF23 protein/peptide binding to the binary FGFR-Klotho complex. The SPR analysis involved FGF23 protein/peptide immobilization by amine coupling on flow channels of a chip. Proteins were injected over the chip at a flow rate of 50 μl min^−1, and at the end of each protein injection (180 s), HBS-EP buffer (10 mM HEPES-NaOH, pH 7.4, 150 mM NaCl, 3 mM EDTA, 0.005% (v/v) polysorbate 20; 50 μl min^−1) was flowed over the chip to monitor dissociation for 180 s. The chip surface was then regenerated by injecting 50 μl of 2.0 M NaCl in 10 mM sodium acetate, pH 4.5. […] For each protein injection over a FGF23 protein/peptide chip, the nonspecific responses from the FHF1B control flow channel were subtracted from the responses recorded for the flow channel onto which FGF23 protein/peptide was immobilized. […] As a control, competition of FGF23 C-terminal tail peptide in solution with immobilized FGF23 C-terminal tail peptide for binding to the binary FGFR1c-Klotho complex was analyzed. […]

B1: FGF23^28-251: human FGF23 (A28 to I251), bioactive full-length ligand expressed in E. coli (protein, listed as Homo sapiens)
chain: ASPLLGSSWGGLIHLYTATARNSYHLQIHKNGHVDGAPHQTIYSALMIRSEDAGFVVITGVMSRRYLCMDFRGNIFGSHYFDPENCRFQHQTLENGYDVYHSPQYHFLVSLGRAKRAFLPGMNPPPYSQFLSRRNEIPLIHFNTPIPRRHTRSAEDDSERDPLNVLKPRARMTPAPASCSQELPSAEDNSPMASDPLGVVRGGRVNTHAGGTGPEGCRPFAKFI
For the molecule B1, the “binding to the binary FGFR1c-Klotho complex” value is given as “bound to the FGFR1c-Klotho complex”.

B2: FGF23^180-251: 72-amino acid C-terminal tail of human FGF23 (S180 to I251), expressed in E. coli (protein, listed as Homo sapiens)
chain: SAEDDSERDPLNVLKPRARMTPAPASCSQELPSAEDNSPMASDPLGVVRGGRVNTHAGGTGPEGCRPFAKFI
In the case of B2, the “binding to the binary FGFR1c-Klotho complex” value is listed as “avidly bound”.
